Data reported in patent US20170290892A1, “POLYMERIC […]” (PEG BIOSCIENCES, INC., priority 2014, published 2017).

Assay: Degradation of 20K OGF-PEG ester conjugate and release of OGF in human plasma at 37 °C
Assay type: in vitro ADME
Settings: incubated in human plasma at 37 °C, 0.5 to 24 hours; reversed-phase HPLC or size exclusion chromatography
Description: Experiments for degradation of the 20K Tyr-gly-gly-phe-met-C(O)—O-mPEG conjugate (20K OGF-C(O)—O-mPEG or 20K OGF—PEG ester) and the release of OGF were conducted in human plasma at 37 ° C. The OGF—PEG conjugate containing hydrolysable ester linkages was incubated in human plasma at 37° C. for various periods of time, ranging from 0.5 to 24 hours. An aliquot plasma sample was withdrawn and treated with acetonitrile or acetonitrile/methanol organic solvent, vortexed, centrifuged, and concentrated. The solution residue was then analyzed by reversed-phase HPLC chromatography or size exclusion chromatography to check the amount of OGF-PEG and the released amount of OGF at various time points. The plasma T1/2 for 20K OGF-C(O)—O-mPEG was about 5 hours.

Question: With “20K Tyr-Gly-Gly-Phe-Met-C(O)O-mPEG [20K OGF-C(O)—O-mPEG]” as the substance, how does the “plasma T1/2” value read?
Answer: about 5 hours
